B1: Peroxisome proliferator-activated receptor gamma coactivator 1-alpha (Homo sapiens), Q9UBK2 (parent)
chain: MAWDMCNQDSESVWSDIECAALVGEDQPLCPDLPELDLSELDVNDLDTDSFLGGLKWCSDQSEIISNQYNNEPSNIFEKIDEENEANLLAVLTETLDSLPVDEDGLPSFDALTDGDVTTDNEASPSSMPDGTPPPQEAEEPSLLKKLLLAPANTQLSYNECSGLSTQNHANHNHRIRTNPAIVKTENSWSNKAKSICQQQKPQRRPCSELLKYLTTNDDPPHTKPTENRNSSRDKCTSKKKSHTQSQSQHLQAKPTTLSLPLTPESPNDPKGSPFENKTIERTLSVELSGTAGLTPPTTPPHKANQDNPFRASPKLKSSCKTVVPPPSKKPRYSESSGTQGNNSTKKGPEQSELYAQLSKSSVLTGGHEERKTKRPSLRLFGDHDYCQSINSKTEILINISQELQDSRQLENKDVSSDWQGQICSSTDSDQCYLRETLEASKQVSPCSTRKQLQDQEIRAELNKHFGHPSQAVFDDEADKTGELRDSDFSNEQFSKLPMFINSGLAMDGLFDDSEDESDKLSYPWDGTQSYSLFNVSPSCSSFNSPCRDSVSPPKSLFSQRPQRMRSRSRSFSRHRSCSRSPYSRSRSRSPGSRSSSRSCYYYESSHYRHRTHRNSPLYVRSRSRSPYSRRPRYDSYEEYQHERLKREEYRREYEKRESERAKQRERQRQKAIEERRVIYVGKIRPDTTRTELRDRFEVFGEIEECTVNLRDDGDSYGFITYRYTCDAFAALENGYTLRRSNETDFELYFCGRKQFFKSNYADLDSNSDDFDPASTKSKYDSLDFDSLLKEAQRSLRR
partner: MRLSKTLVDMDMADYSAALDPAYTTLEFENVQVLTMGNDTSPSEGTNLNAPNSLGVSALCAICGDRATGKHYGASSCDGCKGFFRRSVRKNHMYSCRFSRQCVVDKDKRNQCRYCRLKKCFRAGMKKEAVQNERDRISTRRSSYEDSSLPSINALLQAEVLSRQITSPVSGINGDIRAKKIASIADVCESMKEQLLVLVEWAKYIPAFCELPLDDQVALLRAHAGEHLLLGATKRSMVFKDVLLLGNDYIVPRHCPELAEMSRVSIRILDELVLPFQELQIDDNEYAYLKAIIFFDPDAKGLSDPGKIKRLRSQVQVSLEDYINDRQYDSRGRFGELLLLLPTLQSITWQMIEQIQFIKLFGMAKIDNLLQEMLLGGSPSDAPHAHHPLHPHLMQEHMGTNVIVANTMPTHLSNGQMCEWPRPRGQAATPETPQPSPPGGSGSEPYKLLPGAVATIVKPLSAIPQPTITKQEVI

Legend:
[1] = variants of: B1; conditions: with hnf4a_human HNF4A
[2] = variants of: B1; conditions: with hnf4a_human HNF4A; remark: listed apart in the source

| Variant | effect of a mutation on the interaction [1] | effect of a mutation on the interaction [2] |
| --- | --- | --- |
| V91A;L92A;Y213A;L214A | decreasing interaction | decreasing interaction |
| L147A;L148A | decreasing interaction | – |
| V91A;L92A | – | decreasing interaction |

The remaining lines, values ahead:

| effect of a mutation on the interaction [1] | effect of a mutation on the interaction [2] | Variant |
| --- | --- | --- |
| decreasing interaction | decreasing interaction | V91A;L92A;L147A;L148A |
| disrupting interaction | disrupting interaction | V91A;L92A;L147A;L148A;Y213A;L214A |
| disrupting interaction | disrupting interaction | L147A;L148A;Y213A;L214A |
| decreasing interaction | – | Y213A;L214A |

Reference: IntAct's records for PubMed 19846556
